Reference: CN116178545A (GUANGDONG FEIPENG PHARMACEUTICAL CO LTD, dated 2023)

T1: 重组人PD-L2蛋白 (human, UniProt Q9BQ51 20-219)
T1 construct: The words 携带hFc标签的 stand before the first protein of the list; also called Acrobiosystem Cat.PD2-H5251
T1 sequence (looked up): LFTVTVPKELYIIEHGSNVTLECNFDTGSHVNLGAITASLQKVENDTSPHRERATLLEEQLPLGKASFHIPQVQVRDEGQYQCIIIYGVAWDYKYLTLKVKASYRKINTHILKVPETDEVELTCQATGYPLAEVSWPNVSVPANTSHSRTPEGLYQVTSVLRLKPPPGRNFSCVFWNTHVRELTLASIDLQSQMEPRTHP

T2: 重组人ICOS蛋白 (human, UniProt Q9Y6W8 21-140)
T2 construct: The words 携带hFc标签的 stand before the first protein of the list; also called Acrobiosystem Cat.ICS-H5250
T2 sequence (looked up): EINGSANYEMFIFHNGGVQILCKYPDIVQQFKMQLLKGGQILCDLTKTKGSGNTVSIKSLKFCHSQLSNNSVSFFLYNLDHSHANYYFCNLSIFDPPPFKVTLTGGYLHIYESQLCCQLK

T3: 重组人ICOSLG蛋白 (human, UniProt O75144 19-258)
T3 construct: The words 携带hFc标签的 stand before the first protein of the list; also called Acrobiosystem Cat.B72-H5254
T3 sequence (looked up): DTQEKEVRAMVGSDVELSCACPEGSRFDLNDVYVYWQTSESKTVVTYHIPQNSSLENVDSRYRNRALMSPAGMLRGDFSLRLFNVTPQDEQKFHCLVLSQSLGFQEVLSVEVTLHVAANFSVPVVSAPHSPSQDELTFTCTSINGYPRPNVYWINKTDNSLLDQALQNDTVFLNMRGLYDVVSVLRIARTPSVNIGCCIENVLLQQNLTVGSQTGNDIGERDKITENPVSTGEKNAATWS

T4: 重组人CD276蛋白 (human, UniProt Q5ZPR3-2 29-245)
T4 construct: The words 携带hFc标签的 stand before the first protein of the list; also called B7-H3; Acrobiosystem Cat.B73-H5253
T4 sequence (looked up): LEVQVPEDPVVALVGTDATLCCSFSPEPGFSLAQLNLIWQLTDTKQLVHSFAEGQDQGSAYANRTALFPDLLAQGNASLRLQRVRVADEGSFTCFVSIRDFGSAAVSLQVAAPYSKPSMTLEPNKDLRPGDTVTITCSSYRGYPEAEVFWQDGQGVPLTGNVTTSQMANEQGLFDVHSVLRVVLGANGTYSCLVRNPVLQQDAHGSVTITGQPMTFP

T5: 重组人CD86蛋白 (human, UniProt P42081 26-247)
T5 construct: The words 携带hFc标签的 stand before the first protein of the list; also called Acrobiosystem Cat.CD6-H5257
T5 sequence (looked up): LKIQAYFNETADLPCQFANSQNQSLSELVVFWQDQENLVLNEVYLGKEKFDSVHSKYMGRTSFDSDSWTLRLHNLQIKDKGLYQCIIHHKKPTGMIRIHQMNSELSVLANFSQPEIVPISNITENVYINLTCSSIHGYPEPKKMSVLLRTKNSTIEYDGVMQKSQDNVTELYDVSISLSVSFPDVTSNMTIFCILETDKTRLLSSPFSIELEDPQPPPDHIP


Columns and labels:
重组人PD-L2蛋白 = target: T1, 重组人PD-L2蛋白; assay: ELISA, protein coated at 1μg/ml
重组人PD-1蛋白(自产) = target: T6, 重组人PD-1蛋白(自产) (human, UniProt Q15116 25-167); assay: ELISA, protein coated at 1μg/ml
T6 construct: The words 携带hFc标签的 stand before the first protein of the list
T6 sequence (Q15116 25-167): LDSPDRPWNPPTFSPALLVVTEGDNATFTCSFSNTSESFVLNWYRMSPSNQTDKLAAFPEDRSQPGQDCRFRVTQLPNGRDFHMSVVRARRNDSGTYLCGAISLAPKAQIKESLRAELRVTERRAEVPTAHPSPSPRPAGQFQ

重组人ICOS蛋白 = target: T2, 重组人ICOS蛋白; assay: ELISA, protein coated at 1μg/ml
重组人ICOSLG蛋白 = target: T3, 重组人ICOSLG蛋白; assay: ELISA, protein coated at 1μg/ml
重组人CD276蛋白 = target: T4, 重组人CD276蛋白; assay: ELISA, protein coated at 1μg/ml
重组人CD86蛋白 = target: T5, 重组人CD86蛋白; assay: ELISA, protein coated at 1μg/ml
重组人CD28蛋白 = target: T7, 重组人CD28蛋白 (human, UniProt P10747 19-152); assay: ELISA, protein coated at 1μg/ml
T7 construct: The words 携带hFc标签的 stand before the first protein of the list; also called Acrobiosystem Cat.CD8-H525a

重组人CTLA-4蛋白 = target: T8, 重组人CTLA-4蛋白 (human, UniProt P16410 37-162); assay: ELISA, protein coated at 1μg/ml
T8 construct: The words 携带hFc标签的 stand before the first protein of the list; also called Acrobiosystem Cat.CT4-H5255
T8 sequence (P16410 37-162): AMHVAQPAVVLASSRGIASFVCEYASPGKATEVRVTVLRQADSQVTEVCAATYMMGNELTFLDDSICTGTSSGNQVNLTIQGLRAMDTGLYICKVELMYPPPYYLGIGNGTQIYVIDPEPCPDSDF

小鼠PD-L1 (on CHO cells) = target: T9, 小鼠PD-L1 (on CHO cells) (mouse, UniProt Q9EP73 19-290); assay: flow cytometry on CHO-mPD-L1 cells
T9 construct: whole, on cells; also called CHO-mPD-L1稳定细胞株; 稳定表达全长小鼠PD-L1的CHO
T9 sequence (Q9EP73 19-290): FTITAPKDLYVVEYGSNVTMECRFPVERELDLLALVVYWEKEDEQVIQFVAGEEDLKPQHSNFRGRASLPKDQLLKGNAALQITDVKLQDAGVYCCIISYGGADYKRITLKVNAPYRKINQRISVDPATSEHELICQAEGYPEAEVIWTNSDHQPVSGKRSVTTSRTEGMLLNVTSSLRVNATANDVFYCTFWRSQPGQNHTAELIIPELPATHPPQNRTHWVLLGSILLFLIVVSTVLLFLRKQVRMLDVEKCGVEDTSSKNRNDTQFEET

人PD-L1 (on cells) = target: T10, 人PD-L1 (on cells) (human, UniProt Q9NZQ7 19-290); assay: flow cytometry on IFNγ-stimulated A375 cells
T10 construct: whole, on cells; One molecule for human PD-L1 on CHO-hPD-L1, on IFNγ-stimulated A375 and on CHO-hPD-L1-OKT3 cells; the cell is named under assay; also called CHO-hPD-L1稳定细胞株; 稳定表达人PD-L1的CHO
T10 sequence (Q9NZQ7 19-290): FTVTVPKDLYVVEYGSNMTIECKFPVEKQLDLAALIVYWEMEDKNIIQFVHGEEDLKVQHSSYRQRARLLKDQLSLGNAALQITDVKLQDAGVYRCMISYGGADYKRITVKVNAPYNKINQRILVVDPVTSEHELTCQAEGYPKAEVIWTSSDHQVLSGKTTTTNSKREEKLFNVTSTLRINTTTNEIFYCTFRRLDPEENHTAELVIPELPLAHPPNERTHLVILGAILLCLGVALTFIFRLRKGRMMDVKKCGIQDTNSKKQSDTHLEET

hPD-L1-his = target: T11, hPD-L1-his (human, UniProt Q9NZQ7 19-238); assay: BLI (ForteBIO), hPD-L1-his on anti-Penta-HIS sensor
T11 construct: extracellular domain; also called 携带his标签的人PD-L1胞外区重组蛋白; not shown: his tag
T11 sequence (Q9NZQ7 19-238): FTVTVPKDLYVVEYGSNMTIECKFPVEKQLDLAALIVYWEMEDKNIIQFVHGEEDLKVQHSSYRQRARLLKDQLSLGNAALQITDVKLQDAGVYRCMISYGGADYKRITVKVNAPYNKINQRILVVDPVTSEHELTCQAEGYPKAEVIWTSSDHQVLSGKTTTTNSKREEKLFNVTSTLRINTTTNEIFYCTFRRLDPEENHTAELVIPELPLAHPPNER

Row | Binder | binding result (重组人PD-L2蛋白) | binding result (重组人PD-1蛋白(自产)) | binding result (重组人ICOS蛋白) | binding result (重组人ICOSLG蛋白) | binding result (重组人CD276蛋白) | binding result (重组人CD86蛋白) | binding result (重组人CD28蛋白) | binding result (重组人CTLA-4蛋白) | binding result (小鼠PD-L1 (on CHO cells)) | EC50 (人PD-L1 (on cells)) [pM] | Kd (hPD-L1-his) [pM]
1 | 176L4H2 (antibody, V domains shown, Whole humanized mAb expressed in 293 cells; detected with anti-human IgG; also called 抗人PD-L1人源化抗体176L4H2) VH: QVQLQESGPGLVKPSETLSLTCAVYGDSITSGYWNWIRKPPGKKLEYIGYISYTGSTYQNPSLKSRITMSRDTSKNQYYLKLSSVTAADTAVYYCARSRAWIRTYFDYWGQGTLVTVSS VL: DIQMTQSPSSLSASVGDRVTITCSVSSSISSSNLHWYQQKPGKAPKPWIYGTSNLASGVPSRFSGSGSGTDYTLTISSLQPEDFATYYCQQWSSYPLTFGQGTKLEIKR | no binding (tested: 10μg/ml) | no binding (tested: 10μg/ml) | no binding (tested: 10μg/ml) | no binding (tested: 10μg/ml) | no binding (tested: 10μg/ml) | no binding (tested: 10μg/ml) | no binding (tested: 10μg/ml) | no binding (tested: 10μg/ml) | no binding (tested: 20μg/ml) | ~200 | 84.8
2 | 176L5H2 (antibody, V domains shown, Whole humanized mAb expressed in 293 cells; detected with anti-human IgG; also called 抗人PD-L1人源化抗体176L5H2) VH: QVQLQESGPGLVKPSETLSLTCAVYGDSITSGYWNWIRKPPGKKLEYIGYISYTGSTYQNPSLKSRITMSRDTSKNQYYLKLSSVTAADTAVYYCARSRAWIRTYFDYWGQGTLVTVSS VL: EIVLTQSPSSLSASVGDRVTITCSVSSSISSSNLHWYQQKPGKAPKPWIYGTSNLASGVPSRFSGSGSGTDYTLTISSLQPEDFATYYCQQWSSYPLTFGQGTKLEIKR | no binding (tested: 10μg/ml) | no binding (tested: 10μg/ml) | no binding (tested: 10μg/ml) | no binding (tested: 10μg/ml) | no binding (tested: 10μg/ml) | no binding (tested: 10μg/ml) | no binding (tested: 10μg/ml) | no binding (tested: 10μg/ml) | no binding (tested: 20μg/ml) | ~200 | 109
3 | 176L4H3 (antibody, V domains shown, Whole humanized mAb expressed in 293 cells; detected with anti-human IgG; also called 抗人PD-L1人源化抗体176L4H3) VH: QVQLQESGPGLVKPSETLSLTCAVYGDSITSGYWNWIRKPPGKKLEYIGYISYTGSTYQNPSLKSRITFSRDTSKNQYYLKLSSVTAADTAVYYCARSRAWIRTYFDYWGQGTLVTVSS VL: DIQMTQSPSSLSASVGDRVTITCSVSSSISSSNLHWYQQKPGKAPKPWIYGTSNLASGVPSRFSGSGSGTDYTLTISSLQPEDFATYYCQQWSSYPLTFGQGTKLEIKR | no binding (tested: 10μg/ml) | no binding (tested: 10μg/ml) | no binding (tested: 10μg/ml) | no binding (tested: 10μg/ml) | no binding (tested: 10μg/ml) | no binding (tested: 10μg/ml) | no binding (tested: 10μg/ml) | no binding (tested: 10μg/ml) | no binding (tested: 20μg/ml) | ~200 | 80
4 | 176L4H1 (antibody, V domains shown, Whole humanized mAb expressed in 293 cells; detected with anti-human IgG; also called 抗人PD-L1人源化抗体176L4H1) VH: QVQLQESGPGLVKPSETLSLTCAVYGDSITSGYWNWIRKPPGKGLEYIGYISYTGSTYQNPSLKSRITMSRDTSKNQYYLKLSSVTAADTAVYYCARSRAWIRTYFDYWGQGTLVTVSS VL: DIQMTQSPSSLSASVGDRVTITCSVSSSISSSNLHWYQQKPGKAPKPWIYGTSNLASGVPSRFSGSGSGTDYTLTISSLQPEDFATYYCQQWSSYPLTFGQGTKLEIKR | no binding (tested: 10μg/ml) | no binding (tested: 10μg/ml) | no binding (tested: 10μg/ml) | no binding (tested: 10μg/ml) | no binding (tested: 10μg/ml) | no binding (tested: 10μg/ml) | no binding (tested: 10μg/ml) | no binding (tested: 10μg/ml) | no binding (tested: 20μg/ml) | ~200 | 8.4
5 | 176L4H4 (antibody, V domains shown, Whole humanized mAb expressed in 293 cells; detected with anti-human IgG; also called 抗人PD-L1人源化抗体176L4H4) VH: QVQLQESGPGLVKPSETLSLTCSVYGDSITSGYWNWIRKPPGKKLEYMGYISYTGSTYQNPSLKSRITFSRDTSKNQYYLKLSSVTAADTAVYYCARSRAWIRTYFDYWGQGTLVTVSS VL: DIQMTQSPSSLSASVGDRVTITCSVSSSISSSNLHWYQQKPGKAPKPWIYGTSNLASGVPSRFSGSGSGTDYTLTISSLQPEDFATYYCQQWSSYPLTFGQGTKLEIKR | no binding (tested: 10μg/ml) | no binding (tested: 10μg/ml) | no binding (tested: 10μg/ml) | no binding (tested: 10μg/ml) | no binding (tested: 10μg/ml) | no binding (tested: 10μg/ml) | no binding (tested: 10μg/ml) | no binding (tested: 10μg/ml) | no binding (tested: 20μg/ml) | ~200 | 88.1
